B1: omega-1 (ω1) glycoprotein carrying Man3Gn2 (natural protein)
chain: QNRWDYYVFSVTWPPTYCESIQCRLPRGLRDFTIHGLWPTIFPNRQPNCTGSLRFDIRRLQGIRNELDLMWPHLKNYRESPSFWKHEFEKHGLCAVEDPQVFNQYGYFKFGIKLMQKLNLLKTLMKYKISPHDSRQYDTINLMNVLEREFGYNGSANCIRKPGRRGMYHLEEVHVCLNRKHEFMNCPFLGNCPKKFIFPPFQ
modifications: N-glycans Man3Gn2 (oligomannose-3, paucimannosidic); sites not stated
B2: omega-1 (ω1) glycoprotein carrying Man3Gn2F1[6] (natural protein)
chain: QNRWDYYVFSVTWPPTYCESIQCRLPRGLRDFTIHGLWPTIFPNRQPNCTGSLRFDIRRLQGIRNELDLMWPHLKNYRESPSFWKHEFEKHGLCAVEDPQVFNQYGYFKFGIKLMQKLNLLKTLMKYKISPHDSRQYDTINLMNVLEREFGYNGSANCIRKPGRRGMYHLEEVHVCLNRKHEFMNCPFLGNCPKKFIFPPFQ
modifications: N-glycans Man3Gn2F1[6] (α1,6 core-fucosylated oligomannose-3); sites not stated
B3: omega-1 (ω1) glycoprotein carrying X1Man3Gn2F1[3] (natural protein)
chain: QNRWDYYVFSVTWPPTYCESIQCRLPRGLRDFTIHGLWPTIFPNRQPNCTGSLRFDIRRLQGIRNELDLMWPHLKNYRESPSFWKHEFEKHGLCAVEDPQVFNQYGYFKFGIKLMQKLNLLKTLMKYKISPHDSRQYDTINLMNVLEREFGYNGSANCIRKPGRRGMYHLEEVHVCLNRKHEFMNCPFLGNCPKKFIFPPFQ
modifications: N-glycans X1Man3Gn2F1[3] (oligomannose-3 with β1,2-xylose on mannose 3 and α1,3 core fucose); sites not stated
B4: omega-1 (ω1) glycoprotein carrying Man3Gn2F1[3] (natural protein)
chain: QNRWDYYVFSVTWPPTYCESIQCRLPRGLRDFTIHGLWPTIFPNRQPNCTGSLRFDIRRLQGIRNELDLMWPHLKNYRESPSFWKHEFEKHGLCAVEDPQVFNQYGYFKFGIKLMQKLNLLKTLMKYKISPHDSRQYDTINLMNVLEREFGYNGSANCIRKPGRRGMYHLEEVHVCLNRKHEFMNCPFLGNCPKKFIFPPFQ
modifications: N-glycans Man3Gn2F1[3] (α1,3 core-fucosylated oligomannose-3); sites not stated

These binders were tested against T1, FimH lectin domain (residues Phe1-Thr158) (Escherichia coli, UniProt P08191 22-179) (assay: SPR; single-cycle kinetics on BIAcore T200; ω1-glycoprotein immobilised on a CM5 chip via primary amino groups (EDC/NHS); FimH as analyte at 14.4, 7.17, 3.60, 1.80, 0.9 μM; 20 mM Hepes, 150 mM NaCl, 0.005% Tween; 30 μl/min; 298 K; fit to the Langmuir 1:1 model). Details: both partners purified.
T1 construct: FimH type-1 fimbrial adhesin of Escherichia coli, lectin domain, residues Phe1-Thr158; No tag is mentioned; also called FimH adhesin; source: E. coli C43(DE3), pET24a vector, purified (sulfopropyl fast flow cation exchange chromatography)
T1 sequence (P08191 22-179): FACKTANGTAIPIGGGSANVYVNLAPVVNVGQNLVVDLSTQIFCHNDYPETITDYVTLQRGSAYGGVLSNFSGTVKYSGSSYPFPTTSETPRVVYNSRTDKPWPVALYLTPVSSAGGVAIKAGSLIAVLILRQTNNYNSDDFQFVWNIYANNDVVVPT
In the case of B1, the Kd is reported as 33.6 nM, the koff is reported as 0.00013 s⁻¹ and the kon is reported as 3890 M⁻¹ s⁻¹. Binder B2 has a Kd of 134 nM, a koff of 8.89e-05 s⁻¹ and a kon of 663 M⁻¹ s⁻¹. B3 was tested, and the Kd was 6000 nM, the koff was 0.0015 s⁻¹ and the kon was 257 M⁻¹ s⁻¹. For B4, the Kd was 128 nM, the koff was 6.72e-05 s⁻¹ and the kon was 525 M⁻¹ s⁻¹.

Reference: publication PMC10127133, “Structural insights into a cooperative switch between one and two FimH bacterial adhesins binding pauci- and high-mannose type N-glycan receptors” (The Journal of Biological Chemistry, 2023)
